Measured values as given in paper PMC3718800, “Structural and Functional Perturbation of Giardia lamblia Triosephosphate Isomerase by Modification of a Non-Catalytic, Non-Conserved Region” (PLoS ONE, 2013).

Each substance was assayed on O=C[C@H](O)COP(=O)(O)O (assay: Coupled alpha-glycerol-3-phosphate dehydrogenase assay following NADH decrease at 340 nm at 25°C in 100 mM triethanolamine/10 mM EDTA, pH 7.4, with 0.2 mM NADH and GAP varied from 0.3 to 3 mM, fitted to the Michaelis-Menten equation by non-linear regression.).
Format: biochemical
Procedure: Glyceraldehyde 3-phosphate (GAP), buffers, salts and all the other analytical grade reagents were acquired from Sigma–Aldrich; α-glycerol-3-phosphate dehydrogenase (α-GDH) was from Roche, crystallization screen kits were obtained from Hampton Research. Restriction enzymes, DNA polymerase and T4 DNA ligase were purchased from New England BioLabs and Invitrogene. Oligonucleotide synthesis and DNA sequencing was performed at the Unidad de Biología Molecular, Instituto de Fisiología Celular, UNAM. Protein concentration was determined by the bicinchoninic acid method or by absorbance at 280 nm for pure GlTIM (ε280 = 26600 M^-1cm^-1). The TIM activity was determined at 25°C by a coupled assay, following the decrease in absorbance at 340 nm. The standard reaction mixture contained 100 mM triethanolamine/10 mM EDTA, pH 7.4 (TE buffer), 1 mM GAP, 0.2 mM NADH, and 0.9 units of α-GDH (20 μg/mL); the reaction was initiated by addition of 5 ng/mL of WT, C222V or C222M GlTIM, 10 ng/mL of C222N, 20 ng/mL of C222D or C222F, and 200 ng/mL of C222K. Kinetic, binding and stability data were analyzed by non-linear regression calculations with Origin software.
Determination of Km and Vmax was performed by fitting initial velocity data at GAP concentrations ranging from 0.3 to 3 mM to the Michaelis-Menten equation (v = Vmax•S/Km+S) by non-linear regression calculations. The kcat was derived from Vmax by considering a molecular mass for the monomer of 27.7 kDa. The Ki for 2-phosphoglycolate (2-PG) was calculated by global fit of initial velocity curves (GAP from 0.3 to 3 mM) obtained at different fixed concentrations of the inhibitor. Prior to fitting collectively the data to the simple competitive inhibition equation (v = Vmax•S/Km(1+I/Ki)+S), individual data were plotted as double reciprocal plots to confirm competitive inhibition.

Substance	Km [µM]	Vmax [µmol/min/mg]	kcat [s⁻¹]
C222D (Giardia duodenalis; C222D)	4880 ± 810	3720	3330
C222F (Giardia duodenalis; C222F)	3900 ± 460	1660	1500
C222K (Giardia duodenalis; C222K)	3100 ± 640	255	217
C222M (Giardia duodenalis; C222M)	1850 ± 460	3100	2800
C222N (Giardia duodenalis; C222N)	2790 ± 730	3650	3320
C222V (Giardia duodenalis; C222V)	960 ± 120	9560	8670
